# In US20220280636A1:
# Columns and labels:
# [1] = target: rabbit whole molecule IgG (rabbit); assay: SPR; IgG amine-coupled to CM5 chip, construct flowed at 750 ug/ml; end-point RU of association phase
# [2] = target: human whole molecule IgG (human); assay: as above
# [3] = target: human IgG Fc (human); assay: as above
# [4] = target: rabbit whole molecule IgG (rabbit); assay: SPR; IgG amine coupled to CM5 chip, construct flowed at 750 ug/ml; end-point RU of association phase
# [5] = target: human whole molecule IgG (human); assay: as above
# [6] = target: human IgG Fc (human); assay: as above
# [7] = target: mouse whole molecule IgG (mouse); assay: as above
# [8] = target: guinea pig whole molecule IgG (guinea pig); assay: as above
# [9] = target: rabbit whole molecule IgG (rabbit); assay: SPR; IgG amine-coupled to CM5 chip, construct flowed at 750 ug/ml; end-point RU of association phase; remark: listed apart in the source
# [10] = target: human whole molecule IgG (human); assay: as above; remark: listed apart in the source
# [11] = target: human IgG Fc (human); assay: as above; remark: listed apart in the source
Substance,RU Post Association [1] [RU],RU Post Association [2] [RU],RU Post Association [3] [RU],RU Post Association [4] [RU],RU Post Association [5] [RU],RU Post Association [6] [RU],RU Post Association [7] [RU],RU Post Association [8] [RU],RU Post Association [9] [RU],RU Post Association [10] [RU],RU Post Association [11] [RU]
gD-2t 339 (from UniProt Q69467 26-339),1,4,2,11,2,4,4,2,2,3,1
gE-1t 419/gI-1t 269 (from UniProt P04488 21-419; P06487 21-276),,,,195,232,216,11,19,,,
gE-2t 24-405 (from UniProt P89475 23-402),,,,6,7,8,4,5,,,
gE-2t 24-405/gI-2t 262 (from UniProt P89475 23-402; P06764 21-262),,,,142,136,95,6,8,,,
gE-2t 405 (from UniProt P89475 21-402),,,,6,8,5,4,5,,,
gE-2t 405/gI-2t 262 (from UniProt P89475 21-402; P06764 21-262),,,,165,142,100,8,9,,,
gE-2t 414/gI-2t 262 (from UniProt P89475 21-411; P06764 21-262),,,,75,79,53,5,4,,,
gE-2t 417/gI-2t 262 (from UniProt P89475 21-414; P06764 21-262),138,133,98,46,52,41,10,9,45,53,43
